From patent publication US20230054274A1, “PEPTIDE-MHC COMPLEXES” (priority 2019, published 2023)

Molecular target: HLA-E*01:03 (Homo sapiens, UniProt P13747)
Experiment: Stability of native peptide-HLA-E complexes by loss of ILT2 binding over time (SPR)

HLA-E*01:03, sequence (P13747 with tags, fused parts or gaps): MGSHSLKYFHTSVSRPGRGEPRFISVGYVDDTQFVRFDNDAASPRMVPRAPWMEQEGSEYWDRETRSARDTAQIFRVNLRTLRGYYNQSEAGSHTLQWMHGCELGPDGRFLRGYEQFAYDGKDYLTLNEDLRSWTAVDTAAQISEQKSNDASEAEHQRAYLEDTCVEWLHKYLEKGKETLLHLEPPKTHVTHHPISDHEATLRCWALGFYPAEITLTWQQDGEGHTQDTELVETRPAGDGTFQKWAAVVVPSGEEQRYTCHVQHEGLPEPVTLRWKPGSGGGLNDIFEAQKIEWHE
HLA-E*01:03, sequence (P61769 with tags, fused parts or gaps partner): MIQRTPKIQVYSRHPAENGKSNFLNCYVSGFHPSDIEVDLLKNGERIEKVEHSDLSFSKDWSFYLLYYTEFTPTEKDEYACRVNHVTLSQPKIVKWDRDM

Sequence | T 1/2 (h) (HLA-E*01:03) ([…], half-life by ILT2 binding) | T 1/2 (h) (HLA-E*01:03) (native unmodified peptide in complex with HLA-E*01:03, half-life by ILT2 binding)
ILPSDAPVL [MTB peptide known to be presented by HLA-E] | 0.70 h | –
RMYSPVSIL [HIV (Gag 275) peptide known to be presented by HLA-E] | 0.27 h | –
VMAPRTLIL | 3.20 h | –
VMAPRTLVL | – | 3.00 h
VMATRRNVL [MTB peptide known to be presented by HLA-E] | 0.57 h | –
